{
  "source": "paper PMC9265785",
  "origin": "cited, not measured here",
  "target": "Pex5 (Saccharomyces cerevisiae) (UniProt P35056)",
  "sequence (P35056 whole entry)": "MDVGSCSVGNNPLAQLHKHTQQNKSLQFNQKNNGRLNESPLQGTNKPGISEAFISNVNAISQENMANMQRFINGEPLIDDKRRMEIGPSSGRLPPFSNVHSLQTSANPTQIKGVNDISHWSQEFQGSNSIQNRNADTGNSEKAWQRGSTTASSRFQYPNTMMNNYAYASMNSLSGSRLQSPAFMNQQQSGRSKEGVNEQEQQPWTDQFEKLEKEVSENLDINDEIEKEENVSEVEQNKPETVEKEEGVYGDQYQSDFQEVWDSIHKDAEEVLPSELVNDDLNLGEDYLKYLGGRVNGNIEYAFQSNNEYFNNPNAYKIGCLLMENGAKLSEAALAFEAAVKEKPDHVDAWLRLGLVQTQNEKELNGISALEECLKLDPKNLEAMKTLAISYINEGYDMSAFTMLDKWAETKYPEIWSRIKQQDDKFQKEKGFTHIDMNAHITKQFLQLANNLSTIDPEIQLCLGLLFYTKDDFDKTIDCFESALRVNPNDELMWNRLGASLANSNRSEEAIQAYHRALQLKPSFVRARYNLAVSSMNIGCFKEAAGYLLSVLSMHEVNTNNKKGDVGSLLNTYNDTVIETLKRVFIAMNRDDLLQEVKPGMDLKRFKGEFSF",
  "note": "pKd: −log10 of the molar value.",
  "data": [
    {"substance": "Pex1 (from UniProt P24004)", "values": [
      {"measurement": "pKd", "value": 6.00}
    ]}
  ]
}
